Assay results from US20240376207A1 (JIANGSU HENGRUI PHARMACEUTICALS, published 2024).

T1: human PVRIG expressed on cells (human, UniProt Q6DKI7 41-326)
T1 sequence (looked up): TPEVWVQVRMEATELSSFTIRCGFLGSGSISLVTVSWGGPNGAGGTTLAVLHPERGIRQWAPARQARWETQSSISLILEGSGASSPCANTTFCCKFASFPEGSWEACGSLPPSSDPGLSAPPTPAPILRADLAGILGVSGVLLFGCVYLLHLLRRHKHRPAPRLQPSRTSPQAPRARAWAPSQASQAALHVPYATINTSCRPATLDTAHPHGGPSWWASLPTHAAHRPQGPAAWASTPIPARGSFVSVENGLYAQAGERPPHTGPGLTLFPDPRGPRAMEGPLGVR

T2: human TIGIT expressed on cells (human, UniProt Q495A1 22-244)
T2 construct: whole, on cells; also called cells overexpressing human TIGIT
T2 sequence (looked up): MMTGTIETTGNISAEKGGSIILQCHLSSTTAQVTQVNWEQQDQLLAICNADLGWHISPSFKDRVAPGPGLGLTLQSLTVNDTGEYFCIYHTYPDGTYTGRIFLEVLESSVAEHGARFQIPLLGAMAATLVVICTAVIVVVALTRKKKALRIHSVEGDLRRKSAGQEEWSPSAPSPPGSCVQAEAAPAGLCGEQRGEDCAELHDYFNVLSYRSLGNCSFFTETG

T3: mouse IgG2a Fc-tagged human PVRIG (h-PVRIG-mIgG2a Fc) recombinant protein (human, UniProt Q6DKI7 41-171, limits assumed)
T3 construct: bought from Acrobiosystems; not shown: mouse IgG2a Fc tag
T3 sequence (looked up): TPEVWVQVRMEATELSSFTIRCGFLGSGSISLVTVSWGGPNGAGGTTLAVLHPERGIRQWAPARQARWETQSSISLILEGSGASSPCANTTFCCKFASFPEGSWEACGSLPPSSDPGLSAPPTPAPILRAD


Legend:
[1] = target: cynomolgus monkey TIGIT recombinant protein (cynomolgus monkey, UniProt A0A7N9I9V4 89-209); assay: ELISA, coated antigen
[2] = target: T1, human PVRIG expressed on cells; assay: cell-based or functional assay
[3] = target: T2, human TIGIT expressed on cells; assay: FACS, cells overexpressing target
Protocol: (§1) The expression plasmid carrying human or cynomolgus monkey PVRIG gene sequence was transfected into HEK293 cells, and the over-expressing stable transfection monoclonal cell strain was obtained by antibiotic screening and infinite dilution. Overexpressing cells were seeded into a 96-well plate at 2×10⁵ cells/per well. The cells were centrifuged at 300 g for 5 min, the supernatant was then removed, 100 μL of the test antibody was added, and the mixture was incubated at 4° C. for 1 h. The mixture was centrifuged, the supernatant was removed, the plate was washed 3 times with 200 μL of wash buffer (PBS+2% FBS), and then 100 μL of an anti-human IgG secondary antibody (Invitrogen, A-11013) labeled with Alexa Fluor 488 diluted at 1:500 was added. The mixture was incubated at 4° C. for 1 h. The plate was centrifuged, and the supernatant was removed. The plate was washed 3 times with 200 μL of wash buffer (PBS+2% FBS). The cells were resuspended in 100 μL of PBS and tested on a flow cytometer (BD FACS Calibur or BD FACS Canto_II).
(§2) Similarly to Examples 4, 5 and 6, the binding of humanized anti-PVRIG/TIGIT bispecific antibodies to human and cynomolgus monkey TIGIT and blocking of binding of human TIGIT to ligand were detected, where PVRIG protein was replaced with TIGIT and PVRL2 was replaced with PVR.

[4] = target: T4, cynomolgus monkey TIGIT expressed on cells (cynomolgus monkey, UniProt A0A7N9I9V4 89-312); assay: FACS, cells overexpressing target
T4 construct: whole, on cells; also called cells overexpressing cynomolgus monkey TIGIT
Protocol: as §1, §2

[5] = target: T3, mouse IgG2a Fc-tagged human PVRIG …; assay: competition ELISA; coated h-PVRIG-mIgG2a Fc, competitor his-PVRL2
Protocol: In this experiment, by in vitro blocking experiment, the ability of the selected anti-PVRIG antibodies to block the binding of human PVRIG to its ligand human PVRL2 was detected. Specifically, a mouse IgG2a Fc-tagged human PVRIG recombinant protein (h-PVRIG-mIgG2a Fc) was coated on a 96-well microplate, an anti-PVRIG antibody was added to fully bind to and occupy an epitope, then his-tagged PVRL2 (PV2-H52E2, AcroBiosystem) was added, and the binding amount of PVRIG and PVRL2 was calculated by detecting the his tag. The IC₅₀ value of the anti-PVRIG antibody for blocking the PVRIG active site was calculated.
The h-PVRIG-mIgG2a Fc protein (at a concentration of 1 μg/mL) was coated on the 96-well microplate at 100 μL per well, and incubated overnight at 4° C. The plate was washed three times with wash buffer at 250 μL per well. For each wash, the plate was shaken for 10 s to ensure adequate cleaning. A blocking solution was added at 300 μL/well, and the plate was incubated at room temperature for 1 h. The plate was washed three times with wash buffer at 250 μL per well. For each wash, the plate was shaken for 10 s to ensure adequate cleaning. 50 μL of diluted test anti-PVRIG antibody and 50 μL of his-tagged ligand PVRL2 were added to each well, and the plate was incubated at 37° C. for 1 h. The plate was washed three times with wash buffer at 250 μL per well. The HRP-labeled anti-his-tagged secondary antibody (Genscrpit) diluted at 1:2000 was added at 100 μL per well. The plate was incubated at 37° C. for 1 h. The plate was washed three times with wash buffer at 250 μL per well. TMB was added at 100 μL/well, and the plate was incubated in the dark for 15 min. 0.16 M sulfuric acid was added at 50 μL/well. OD values at 450 nm were measured using a Thermo MμtLtiSkanFc microplate reader, and the IC₅₀ values of the anti-PVRIG antibodies blocking the binding of PVRIG to PVRL2 were calculated.

Sequence of cynomolgus monkey TIGIT recombinant protein (A0A7N9I9V4 entry or part of it): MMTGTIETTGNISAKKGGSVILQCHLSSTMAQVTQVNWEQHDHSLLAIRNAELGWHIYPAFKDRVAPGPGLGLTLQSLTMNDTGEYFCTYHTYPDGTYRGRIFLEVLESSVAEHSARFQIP
T4 sequence (A0A7N9I9V4 entry or part of it): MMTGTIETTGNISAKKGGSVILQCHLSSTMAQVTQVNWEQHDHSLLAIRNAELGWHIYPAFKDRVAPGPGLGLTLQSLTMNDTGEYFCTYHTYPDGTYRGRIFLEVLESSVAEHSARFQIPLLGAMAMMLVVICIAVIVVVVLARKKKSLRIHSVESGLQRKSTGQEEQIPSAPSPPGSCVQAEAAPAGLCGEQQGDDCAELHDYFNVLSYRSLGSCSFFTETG

Row | binding result [1] | MLR IFNγ (pg/mL), 4 nM antibody [2] [pg/mL] | MLR IFNγ (pg/mL), 20 nM antibody [2] [pg/mL] | MLR IFNγ (pg/mL), 100 nM antibody [2] [pg/mL] | binding result [3] | binding result [4] | IC50 [5] [nM] | EC50 [1] [nM] | EC50 [3] [nM] | EC50 [4] [nM] | Binder
1 | no binding | 912 | 1420 | 2350 | no binding | no binding | 1.16 |  |  |  | positive antibody Tab5 (antibody, human IgG4 S228P, kappa, F234A L235A, V domains shown, Variable regions of CPA.7.021 (WO2016134333A1) on human IgG4 (S228P/F234A/L235A/K447A) and human kappa constant regions) VH: EVQLVESGGGVVKPGGSLRLSCAASGFTFGTSSMNWVRQAPGKGLEWVAVISFDGTEIHYADSVKGRFTISRDNSKSTVFLQMNSLRPDDTALYYCAKGSGNIYFYSGMDVWGQGTTVTVSS VL: DIQMTQSPSTLSASVGDRVTITCRAGQSISGWLAWFQQKPGKAPNLLIYETSTLESGVPSRFSGSGSGTEYTLTISSLQPDDFATYYCQQYYSYPLTFGQGTKVEIKR
2 |  | 1390 | 2020 | 2130 |  |  | 0.93 |  |  |  | anti-PVRIG antibody 38 (antibody, human IgG4 S228P, F234A L235A, V domains shown, no light chain) VH: QVQLVESGGGSVQAGGSLRLSCAASPSTYGPSDMAWFRQAPGKQREGVATISAAGRLTYYTDSVRGRFTISRDNAKNTMYLQMNSLKPEDTAMYYCAADFAGGSSLFADYKYWGQGTQVTVSS
3 |  |  |  |  |  |  |  | 0.112 | 0.01 | 0.009 | humanized anti-PVRIG/TIGIT bispecific antibody 1708-20H5 (bispecific antibody, human IgG4 S228P, kappa) heavy: not shown light: DIQMTQSPSSLSASVGDRVTITCRASENIYSYLAWYQQKPGKSPKLLIYNARTLAEGVPSRFSGSGSGTDFTLTISSLQPEDFATYYCQYHSGSPLPFGGGTKVEIKRTVAAPSVFIFPPSDEQLKSGTASVVCLLNNFYPREAKVQWKVDNALQSGNSQESVTEQDSKDSTYSLSSTLTLSKADYEKHKVYACEVTHQGLSSPVTKSFNRGEC

More lines, now with the values behind:

Row | Binder | binding result [1] | MLR IFNγ (pg/mL), 4 nM antibody [2] [pg/mL] | MLR IFNγ (pg/mL), 20 nM antibody [2] [pg/mL] | MLR IFNγ (pg/mL), 100 nM antibody [2] [pg/mL] | binding result [3] | binding result [4] | IC50 [5] [nM] | EC50 [1] [nM] | EC50 [3] [nM] | EC50 [4] [nM]
4 | anti-PVRIG antibody 39 (antibody, human IgG4 S228P, F234A L235A, V domains shown, no light chain) VH: QVQLVESGGGSVQAGGSLRLSCAASRYTSRTDCMGWFRQAPGKEREGVAHIDSDGIPRYVESVKGRFTISQDHAKNTLYLQMNSLKPEDSATYYCVVGFKFGDYCAPNDWGQGTQVTVSS |  |  |  |  |  |  | 0.76 |  |  | 
5 | humanized anti-PVRIG/TIGIT bispecific antibody 1708-30H2 (bispecific antibody, human IgG4 S228P, kappa) heavy: not shown light: DIQMTQSPSSLSASVGDRVTITCRASENIYSYLAWYQQKPGKSPKLLIYNARTLAEGVPSRFSGSGSGTDFTLTISSLQPEDFATYYCQYHSGSPLPFGGGTKVEIKRTVAAPSVFIFPPSDEQLKSGTASVVCLLNNFYPREAKVQWKVDNALQSGNSQESVTEQDSKDSTYSLSSTLTLSKADYEKHKVYACEVTHQGLSSPVTKSFNRGEC |  |  |  |  |  |  |  | 0.114 | 0.01 | 0.009
6 | anti-PVRIG antibody 151 (antibody, human IgG4 S228P, F234A L235A, V domains shown, no light chain) VH: HVQLVESGGGSVQAGGSLRLSCVASASGFTYRPYCMAWFRQAPGKEREAVAGIDIFGGTTYADSVKGRFTASRDNAGFSLFLQMNDLKPEDTAMYYCAAGDSPDGRCPPLGQGLNYWGQGTQVTVSS |  | 1500 | 2220 | 1800 |  |  | 0.37 |  |  | 
7 | anti-PVRIG antibody 30 (antibody, human IgG4 S228P, F234A L235A, V domains shown, no light chain) VH: HVQLVESGGGSVQAGGSLRLSCEASGYSYSGDCMGWFRRAPGKERDEGVATIDNAGRIKYADSVKGRFTISHGNGKYILYLQMNSLKPEDTDMYYCAAGWTFGGNCSPADWGQGTQVTVSS |  | 1680 | 1910 | 1580 |  |  | 1.11 |  |  | 
